Assay [1] has as its target αVβ3(N339S) transiently expressed on HEK293T cells (human) (UniProt P06756).
Assay [2] has the same target. The assay is described as follows: flow cytometry on cells.
Assay [3] deals with wild-type αVβ3 stably expressed in K562 cells (K562-αVβ3) (human) (UniProt P06756). In words: flow cytometry on cells. (A flow cytometer gives signals particle by particle.)
Sequence of wild-type αVβ3 stably expressed in K562 cells (K562-αVβ3) (human) (P06756 31-1048, chain 1 of 2): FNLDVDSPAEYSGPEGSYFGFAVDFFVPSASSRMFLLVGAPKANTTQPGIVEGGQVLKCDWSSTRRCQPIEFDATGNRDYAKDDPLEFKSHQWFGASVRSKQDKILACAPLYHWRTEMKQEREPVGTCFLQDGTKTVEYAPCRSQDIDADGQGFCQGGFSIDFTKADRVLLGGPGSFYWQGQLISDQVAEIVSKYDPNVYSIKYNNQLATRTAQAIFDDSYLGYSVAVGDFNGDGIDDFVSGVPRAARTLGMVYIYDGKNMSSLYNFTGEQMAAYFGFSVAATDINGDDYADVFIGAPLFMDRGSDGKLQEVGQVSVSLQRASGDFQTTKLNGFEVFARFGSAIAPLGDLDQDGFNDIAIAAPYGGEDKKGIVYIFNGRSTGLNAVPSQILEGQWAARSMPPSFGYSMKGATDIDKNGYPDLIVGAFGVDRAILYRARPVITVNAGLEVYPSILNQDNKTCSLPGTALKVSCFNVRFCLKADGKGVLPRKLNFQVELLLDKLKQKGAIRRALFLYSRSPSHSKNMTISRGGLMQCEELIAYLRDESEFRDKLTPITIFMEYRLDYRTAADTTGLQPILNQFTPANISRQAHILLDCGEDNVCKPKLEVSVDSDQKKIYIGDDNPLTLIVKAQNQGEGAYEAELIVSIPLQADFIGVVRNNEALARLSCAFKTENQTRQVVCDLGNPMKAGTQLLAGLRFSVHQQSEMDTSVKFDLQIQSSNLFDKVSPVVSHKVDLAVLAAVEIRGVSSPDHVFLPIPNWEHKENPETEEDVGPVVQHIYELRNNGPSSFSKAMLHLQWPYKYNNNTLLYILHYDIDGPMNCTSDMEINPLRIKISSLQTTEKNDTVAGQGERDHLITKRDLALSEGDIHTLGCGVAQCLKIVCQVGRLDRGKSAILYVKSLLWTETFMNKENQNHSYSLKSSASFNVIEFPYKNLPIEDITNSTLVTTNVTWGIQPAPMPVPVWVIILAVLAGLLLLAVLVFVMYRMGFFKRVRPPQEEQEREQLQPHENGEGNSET
Sequence of wild-type αVβ3 stably expressed in K562 cells (K562-αVβ3) (human) (P05106 27-788, chain 2 of 2, further chain): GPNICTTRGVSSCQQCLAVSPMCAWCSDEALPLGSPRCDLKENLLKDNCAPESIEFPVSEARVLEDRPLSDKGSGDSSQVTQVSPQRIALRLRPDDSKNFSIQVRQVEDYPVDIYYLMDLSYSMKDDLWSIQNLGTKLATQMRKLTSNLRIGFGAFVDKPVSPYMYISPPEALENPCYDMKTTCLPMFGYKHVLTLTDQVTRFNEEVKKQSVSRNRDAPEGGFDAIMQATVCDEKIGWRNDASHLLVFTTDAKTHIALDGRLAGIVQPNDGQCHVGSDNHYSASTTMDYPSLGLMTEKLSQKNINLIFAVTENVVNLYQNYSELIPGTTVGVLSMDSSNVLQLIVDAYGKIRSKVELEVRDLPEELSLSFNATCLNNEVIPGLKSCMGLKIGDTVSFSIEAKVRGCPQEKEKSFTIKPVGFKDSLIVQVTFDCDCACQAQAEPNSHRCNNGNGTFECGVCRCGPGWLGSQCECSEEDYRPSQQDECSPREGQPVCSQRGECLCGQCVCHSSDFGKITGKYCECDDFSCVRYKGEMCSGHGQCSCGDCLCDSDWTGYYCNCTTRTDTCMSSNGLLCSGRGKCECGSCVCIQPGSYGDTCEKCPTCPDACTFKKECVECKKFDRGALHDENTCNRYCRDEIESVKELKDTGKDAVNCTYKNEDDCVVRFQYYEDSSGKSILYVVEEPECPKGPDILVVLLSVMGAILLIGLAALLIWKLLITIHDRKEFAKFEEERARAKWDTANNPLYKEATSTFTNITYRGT

Sequence of 10th type III RGD-domain of wild-type fibronectin (wtFN10) (domain or fragment) (P02751 45-2432): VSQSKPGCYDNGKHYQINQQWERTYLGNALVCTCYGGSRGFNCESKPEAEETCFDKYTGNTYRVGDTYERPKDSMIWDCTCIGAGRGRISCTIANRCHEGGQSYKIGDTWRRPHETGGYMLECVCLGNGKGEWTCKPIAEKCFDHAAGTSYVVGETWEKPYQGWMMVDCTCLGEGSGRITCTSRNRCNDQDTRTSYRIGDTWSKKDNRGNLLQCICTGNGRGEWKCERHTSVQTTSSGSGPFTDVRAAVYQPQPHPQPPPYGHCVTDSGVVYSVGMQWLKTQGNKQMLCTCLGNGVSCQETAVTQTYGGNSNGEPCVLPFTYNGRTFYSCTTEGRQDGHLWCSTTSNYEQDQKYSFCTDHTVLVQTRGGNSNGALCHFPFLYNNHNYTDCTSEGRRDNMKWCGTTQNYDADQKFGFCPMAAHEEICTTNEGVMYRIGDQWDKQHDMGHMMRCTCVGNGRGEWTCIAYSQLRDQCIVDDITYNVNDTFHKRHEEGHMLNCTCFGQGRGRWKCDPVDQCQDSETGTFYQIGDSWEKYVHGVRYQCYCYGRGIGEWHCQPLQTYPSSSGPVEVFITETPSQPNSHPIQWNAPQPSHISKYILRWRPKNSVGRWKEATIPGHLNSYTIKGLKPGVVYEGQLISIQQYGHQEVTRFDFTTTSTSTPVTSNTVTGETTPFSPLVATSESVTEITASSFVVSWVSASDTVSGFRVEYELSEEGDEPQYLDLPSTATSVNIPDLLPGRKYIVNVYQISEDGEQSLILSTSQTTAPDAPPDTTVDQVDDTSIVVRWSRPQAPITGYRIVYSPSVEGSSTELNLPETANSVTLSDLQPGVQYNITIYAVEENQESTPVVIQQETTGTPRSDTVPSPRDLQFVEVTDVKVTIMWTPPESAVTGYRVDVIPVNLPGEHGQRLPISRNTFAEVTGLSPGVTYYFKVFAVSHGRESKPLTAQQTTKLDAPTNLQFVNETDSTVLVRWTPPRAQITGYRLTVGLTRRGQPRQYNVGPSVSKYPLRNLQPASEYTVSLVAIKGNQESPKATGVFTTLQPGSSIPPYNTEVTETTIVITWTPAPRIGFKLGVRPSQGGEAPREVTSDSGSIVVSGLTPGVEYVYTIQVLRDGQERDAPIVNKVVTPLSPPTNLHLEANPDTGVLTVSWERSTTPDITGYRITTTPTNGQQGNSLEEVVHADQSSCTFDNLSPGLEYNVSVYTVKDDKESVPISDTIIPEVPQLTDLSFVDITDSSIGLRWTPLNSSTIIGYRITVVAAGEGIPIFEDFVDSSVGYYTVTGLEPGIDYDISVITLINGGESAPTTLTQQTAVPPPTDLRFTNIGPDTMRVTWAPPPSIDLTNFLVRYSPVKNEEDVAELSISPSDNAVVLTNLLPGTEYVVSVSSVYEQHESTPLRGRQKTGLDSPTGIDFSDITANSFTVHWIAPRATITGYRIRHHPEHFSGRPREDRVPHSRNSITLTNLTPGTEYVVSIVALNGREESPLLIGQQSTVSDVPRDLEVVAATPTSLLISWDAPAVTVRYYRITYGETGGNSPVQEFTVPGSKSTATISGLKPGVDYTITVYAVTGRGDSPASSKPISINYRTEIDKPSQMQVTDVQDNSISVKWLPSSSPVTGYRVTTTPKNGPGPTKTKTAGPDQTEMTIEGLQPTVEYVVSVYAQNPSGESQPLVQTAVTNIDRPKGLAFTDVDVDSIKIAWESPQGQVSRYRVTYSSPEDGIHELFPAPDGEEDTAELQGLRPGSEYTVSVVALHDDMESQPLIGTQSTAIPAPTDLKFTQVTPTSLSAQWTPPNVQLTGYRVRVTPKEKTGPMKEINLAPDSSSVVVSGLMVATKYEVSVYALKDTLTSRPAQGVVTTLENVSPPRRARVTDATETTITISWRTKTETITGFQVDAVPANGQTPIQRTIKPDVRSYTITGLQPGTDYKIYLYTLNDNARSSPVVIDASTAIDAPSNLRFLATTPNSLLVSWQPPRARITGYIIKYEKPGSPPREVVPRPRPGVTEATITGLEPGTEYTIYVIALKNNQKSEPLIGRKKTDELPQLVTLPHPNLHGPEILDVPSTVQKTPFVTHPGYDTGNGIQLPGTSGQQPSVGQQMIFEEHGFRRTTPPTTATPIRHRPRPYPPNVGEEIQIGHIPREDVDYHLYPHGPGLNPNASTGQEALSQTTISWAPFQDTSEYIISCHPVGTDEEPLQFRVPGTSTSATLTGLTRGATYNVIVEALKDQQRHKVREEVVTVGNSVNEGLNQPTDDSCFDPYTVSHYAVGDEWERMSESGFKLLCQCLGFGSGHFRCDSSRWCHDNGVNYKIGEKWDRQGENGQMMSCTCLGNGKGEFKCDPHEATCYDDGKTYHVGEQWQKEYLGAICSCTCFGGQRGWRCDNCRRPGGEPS
Sequence of αVβ3(N339S) transiently expressed on HEK293T cells (human) (P06756 31-1048, chain 1 of 2): as the sequence (P06756 31-1048, chain 1 of 2) above
Sequence of αVβ3(N339S) transiently expressed on HEK293T cells (human) (P05106 27-788 N339S, chain 2 of 2, further chain): as the sequence (P05106 27-788, chain 2 of 2, further chain) above, with N313S counted along it

Substance “10th type III RGD-domain of wild-type fibronectin (wtFN10) (domain or fragment)” had an AP5 epitope expression (flow cytometry, HEK293T) in assay [1] of 2 fold. This substance also displayed a fold increase of binding by the N339S mutation over wild-type αVβ3 in assay [2] of 6 fold. Besides, the fold increase of binding (MFI) in Mn2+ over Ca2+-Mg2+ in assay [3] is 10 fold.

(Values after article PMC4012256.)
